Experiments:
Assay in all cases: EMSA
Mbd4-Strep = Mbd4-Strep (UniProt Q9Z2D7 1-554)
mcherry-Tet1CD = mcherry-Tet1CD (UniProt Q3URK3 1367-2039)
MBD-YFP (MBD of Mecp2) = MBD-YFP (MBD of Mecp2) (UniProt Q9Z2D6 77-167)

Measured: binding result

MBD-YFP (MBD of Mecp2), sequence (Q9Z2D6 77-167): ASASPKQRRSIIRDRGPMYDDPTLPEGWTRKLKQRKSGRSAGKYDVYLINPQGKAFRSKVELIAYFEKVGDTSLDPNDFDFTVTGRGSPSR
mcherry-Tet1CD, sequence (Q3URK3 1367-2039): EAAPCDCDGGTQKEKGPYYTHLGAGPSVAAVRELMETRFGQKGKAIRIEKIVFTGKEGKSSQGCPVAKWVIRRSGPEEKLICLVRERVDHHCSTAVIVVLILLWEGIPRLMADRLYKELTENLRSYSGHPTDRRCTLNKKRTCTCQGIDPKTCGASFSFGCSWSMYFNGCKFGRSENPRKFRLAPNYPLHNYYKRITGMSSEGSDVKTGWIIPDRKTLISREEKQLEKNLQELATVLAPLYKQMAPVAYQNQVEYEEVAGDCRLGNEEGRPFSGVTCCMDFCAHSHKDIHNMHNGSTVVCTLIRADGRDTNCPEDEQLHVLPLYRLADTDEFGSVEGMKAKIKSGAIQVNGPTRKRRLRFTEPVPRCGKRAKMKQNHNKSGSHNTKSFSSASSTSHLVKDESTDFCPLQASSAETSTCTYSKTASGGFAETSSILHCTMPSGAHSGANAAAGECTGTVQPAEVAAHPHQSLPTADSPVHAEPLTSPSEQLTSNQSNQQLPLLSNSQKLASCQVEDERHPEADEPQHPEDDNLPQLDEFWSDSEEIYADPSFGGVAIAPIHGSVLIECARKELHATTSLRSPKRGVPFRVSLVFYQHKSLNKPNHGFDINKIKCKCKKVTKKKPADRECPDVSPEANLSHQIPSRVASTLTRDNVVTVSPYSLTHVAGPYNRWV
Mbd4-Strep, sequence (Q9Z2D7 whole entry): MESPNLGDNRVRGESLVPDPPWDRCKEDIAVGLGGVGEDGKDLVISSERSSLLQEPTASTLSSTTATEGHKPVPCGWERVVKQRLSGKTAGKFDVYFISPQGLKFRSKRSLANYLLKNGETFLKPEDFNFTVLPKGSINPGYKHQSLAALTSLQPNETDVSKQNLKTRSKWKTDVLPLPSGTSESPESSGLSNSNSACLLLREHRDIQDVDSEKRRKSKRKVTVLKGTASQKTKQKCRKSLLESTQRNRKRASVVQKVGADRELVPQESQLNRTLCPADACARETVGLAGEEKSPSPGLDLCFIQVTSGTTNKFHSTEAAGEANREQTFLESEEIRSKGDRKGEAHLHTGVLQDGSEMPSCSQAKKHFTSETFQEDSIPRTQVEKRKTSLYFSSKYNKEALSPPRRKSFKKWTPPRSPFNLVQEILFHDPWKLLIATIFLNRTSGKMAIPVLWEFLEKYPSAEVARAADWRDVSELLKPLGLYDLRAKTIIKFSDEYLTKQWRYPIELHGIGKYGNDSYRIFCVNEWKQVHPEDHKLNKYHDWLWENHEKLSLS

B1: mC:mC fully methylated CpG 42-mer (dsDNA)
DNA 1: CTCAACAACTAACTACCATCCGGACCAGAAGAGTCATCATGG
DNA 2: CCATGATGACTCTTCTGGTCCGGATGGTAGTTAGTTGTTGAG
modifications: 5mC at position 21 of both strands
binds: all assays above

From article PMC6994035
